{"source": "a protein production outcome set (Wang et al. 2014)", "assay": "label from the status in PepcDB records"}
{"sequence": "MTVITLVLGMLLPAVVSILMLMASTQSRISEEENMMRAGLVEGMGLQVDEVVDALAQSLEVIAANGGADADDATRWTRLLQASRAFGKQFLEFHVANPNGDVISSSASLPEGINVADRAYFSTSLATEGMVASEGLVSRHTGQIALYFALAVRSDEEAHSGVVFAGFNGEVFGDMLRKAGPRSDGLTVFVLDRNGDSVYEHLPSGGRHPVHIPPADLRDCADGRRAWLEFGGTRHAVSVMAKRLATGEAPYLYLLVSTPDESFFSLSTLRGVTPLLLGTLCVALAALAAANRRIVHPLESLTRKVQAIEAGQPLPETAMESVREIGGLQTAVTRMAQAISQREQELAWFATHDDLTGLANRKALHEMLAARLDRLEEGASETVAVIFIDIDRFKAINDSMGHTWGDNVIAAFAARLGAFMHPLHAFCARVGGDEFVVVPDASATHNVVRDTRALLAHLGTPYDINGREVRLSASAGVLFVGDPGESPDVIIRNANAAMHRSKERGFGRISIFRPLHLDSYMLRLDIERELPLAAATGQLHMVYQPIVNASDGSLHSFEALMRWNHPRHGSLSPATFITVAEQTGHVGLLGDFALREAGACVRRFGEAGLLTPGLRFGVNISPAHLMAQDFLSDIESVLDAVSVPGDRITLEVTESALISTGAELMGRLETLAKRGLNFAIDDYGAGYSNIQYLASEHFRVIKIDKSLIDEVHLRDRMRAIVRSTVQLAHSLGCKIVAEGVETHAQANLLARLGCDYLQGYLFSRPVPETDAMRLAIRAMDQGTLLPPEAHPDA", "values": [{"measurement": "protein production", "result": "failed"}]}
{"sequence": "MTENELLTRCGGKCELCGSDVELAIYDLPASDGHENEIMICENCSSQIAAPDTMDMNHWRCLNDSMWSQVPAVQVMSYRMLKRLSGESWAQDLLDMLYLEDDLRAWGDAEAAAASDDTPPTLDSNGAVLNAGDTVVIIKDLNVKGTSFVAKRGTAVRNIALTNNPEHIEGRVNGTRIVILTCFVKKSLEHHHHHH", "values": [{"measurement": "protein production", "result": "not failed"}]}
{"sequence": "MSRIGKLLLGIVNLGPIGFMAVAVYRHGDLPASAVAVQVAVVAVLLGIYLRHLAGNDQLTRGLRRGWALVLLAGNWAVFPVYWHQFVWQDPRER", "values": [{"measurement": "protein production", "result": "failed"}]}
{"sequence": "EAGGIGIWEWELKPNIFSWDKRMFELYEIPPHIKPNWQVWYECVLPEDRQHAEKVIRDSLQSRSPFKLEFRIAVKDGIRHIRALANRVLNKEGEVERLLGINMDMT", "values": [{"measurement": "protein production", "result": "failed"}]}
{"sequence": "MTAAGFNSILCLRQLVRLNRRQYSAPAKSVLSGSQTNDQATPPPTSKSADKMRGWQLHNYGDIDELQLSEMLKIPQIRCSNECLVRIRATAVNPIDLAMLRGYGATVLNKMRCQPGDGIEFPLILGREFCGELVQTGMGVSLPLGSRVWGVVPLQATIGSHAEYVAVPSYCLAPAPKELDDYEAASVLYAGLTAWSGLYITGGLGGPCGATTASGGGAHKRVLVLGGSGGVGTLAIQILKSQKVQVLATCSENAIEMVRNLGADLVVDYNNPQAMEELCKYAPYDIVLDCAGQGGQKAAESKYDFRQYITFSSPLLANIDKQGLGVGALKNVFDLFQTNVRSVTQRGGLVKWGFFSPAPQGIQFLQKLVEQRKLMPLIDSSYGFSELPKAFEKMKSGHLRGKIVVKLREETGD", "values": [{"measurement": "protein production", "result": "failed"}]}
{"sequence": "MPSQDWERSVLGCSMQVGQGWCCVDLSDISCVQDVAKEVLDCYGCVDILINNASVKVKGPAHKISLELDKKIMDANYFGPITLTKVLLPNMISRRTGQIVLVNNIQAKFGIPFRTAYAASKHAVMGFFDCLRAEVEEYDVVVSTVSPTYIRSYRASPEQRNWETSICKFFCRKLAYGVHPVEVAEEVMRTVRRKKQEVFMANPVPKAAVFIRTFFPEFFFAVVACGVKEKLNVPEEG", "values": [{"measurement": "protein production", "result": "failed"}]}
{"sequence": "MNKKTIGFFSGIAVFAIIYFLPIAGLSAKGQMDLALSLMTVVWWATQIAQPAFVGGIYLMLLIIMNVATPSQVFSSAWTGSIMWLVIGAYLIAGAVNESGLGQRIAYAFIIKFVRSWKGIVISIFALTFILALLIPHPWPRAFMIMSVITVVAETAKMPKRDLAKLGLAVFAASCPLSGVFYTGDTSLNPLAVQASGQSVNFVSYFIYMGVPMIIAAILTMFLFLFLFKPSQEVHIDVEALKQQQAQLGGMTGKEVRTIIWLIIAIALWLTSGITGLDVGWLTLIVALMMSLPVVGGILTAKSWEGVPVNVLVFLTSAIAIGNVGGVTGMNNWIAKTLIPSNLPTNIYLLAIVITVFAMIIHMFMGSVIAVMGITIPAFVAATAHMGISPLAVSLLVFSVTNLHYILPFHNLAVLVGSDPDTGGGYTQKDVMRLGIPLTAVVFVVALVEMFWFHLVGLA", "values": [{"measurement": "protein production", "result": "failed"}]}
{"sequence": "MWGYVHLISWVAIVVLTVTALLIYSKSVKGFTMLQMINRVFYILVILSGIMMVQYSVKESWILAIFKILMGIIVIGVVEMLLSYRKQQKPTGMFLMIFIIVVVITVSLGFYLSGGYPLFN", "values": [{"measurement": "protein production", "result": "failed"}]}
{"sequence": "MRVIVAYDGSPGADKAVGFALGLKDSIDKYFILYVSRDITDLSGQLVYISDETVEQQERLADEIVNKAKSLMTRSGVDYEVMKVDSNGEDISKVIVKIAQEKGIDVIFTGTRKLRGLDKFFLGSISSGILALSSCPVIVVP", "values": [{"measurement": "protein production", "result": "not failed"}]}
{"sequence": "SYVQDYRSPFIASVSDQHGVVYITENKNKTVVIPCLGSISNLNVSLCARYPEKRFVPDGNRISWDSKKGFTIPSYMISYAGMVFCEAKINDESYQSIMYIVVVVGYRIYDVVLSPSHGIELSVGEKLVLNCTARTELNVGIDFNWEYPSSKHQHKKLVNRDLKTQSGSEMKKFLSTLTIDGVTRSDQGLYTCAASSGLMTKKNSTFVRVHEKPFVAFGSG", "values": [{"measurement": "protein production", "result": "not failed"}]}
{"sequence": "MKWSEISIHTTEEAVEAVSHILHEAGASGVAIEDPAELTKEREQQYGEIYALNPDEYPAEGVLIKAYFPQTDSLHETIAGVKSSIDVLPSYDIEIGTGNITVNEVNEEDWATAWKKYYHPVQISDTFTIVPTWEEYTPSSPEEKIIELDPGMAFGTGTHPTTTMCIRALEKTVQPGDTIIDVGTGSGVLSIAAAKLGASSVQAYDLDPVAVESAEMNVRLNKTDDVVSVGQNSLLEGIEGPVDLIVANLLAEIILLFPEDAARVVKSGGLFITSGIIAAKEKVISEALEKAGFTIEEVLRMEDWVAIIARNA", "values": [{"measurement": "protein production", "result": "failed"}]}
{"sequence": "MTTRRLALFDLDHTLLPLDSDYQWADFLARTGRAGDPAEARRRNDDLMERYNRGELTAEQAAEFMLGLLAAHSPVELAAWHEEFMRDVIRPSLTVQAVDVVRGHLAAGDLCALVTATNSFVTAPIARAFGVQHLIATDPEYRDGRYTGRIEGTPSFREGKVVRVNQWLAGMGLALGDFAESYFYSDSVNDVPLLEAVTRPIAANPSPGLREIAQARGWQVIDLFDHLEDAKS", "values": [{"measurement": "protein production", "result": "not failed"}]}
{"sequence": "MRAFLRVVETGNFTRASASLNMPKATVTNLIQGLEAHLRTKLLNRTTRRVLVTPDGALYYERAARLLSDLDELDGSLSTAQSLPKGRLRVETASAFANLVIIPALPEFHKKYPDIQIDLGVSDRTIDYLAENVDCAIRAGTLTDQSLIARRITEMKFVACASRDFLERHPVPQHPSDLEKNCYVVGYFLPKTGQQMPFHFRRGNEEIEVSGRYTVAANESTTYLAAARAGLGVIQAPLFMVREDLRNGTMVPVLPDWQVEPMPIYLVYPPNRHLSSRLRVFADWVVKVMAQSQNGE", "values": [{"measurement": "protein production", "result": "not failed"}]}
{"sequence": "MHFSKEHINALETRTRAHFINSLSGFKSANLIGTQDRQGNTNLSIVSSVIHLGANPPLMGMIIRPHSVPRHTFENIMQTGLYTINHVNQSIYEQAHQTSARYDKDESEFEATGLTPEYLSDFCAPFVKESRLKYSVKLVEHQHLAINGTEFVIGEIVDVYVDDNAVQTDGFIDLQAIDTVAISGLDCYYTGDKLARLPYAKK", "values": [{"measurement": "protein production", "result": "not failed"}]}
{"sequence": "MSALIDTWFLGCRAAATAVLYVLFAVVAGGAVSAARAATVAASAPAPVTVGSGKKAVRQGISLELLVKPTHAEDGFSAAVVEGAYADVSLKMTDAATGHPVTVMQPRVWIDLRKGTGDFREKQMACSDKVRTYLQGTLSFRPDIDLNSYFVLTLNNDASISVIDPIIGVAGYSQLYAMILLKRPGEDWVFSFDGKRLYVTMPKAGEVAEIDTDSLAVVRNIPAGAMPVRMAFQPDSRYLWVGNDSSDPARSGVTVIDPFSGTQAAFIQTGAGHHEIAFADDSRYAFVTNQQSGTLTIIDIQSLAPVKTLRLGDGPVSVAYSALSKCAHVVCEGDGNLLVVDGLSHEIISRKTFEPGFREVRFAPGDRWYFTVNGKNGQILVFDAAGNELLHSTVVAGRPEHVSFSTEFAYIRSLGTADVTLIPLAALGKAAILTPLVVSGGSRPPADSPLLPPTADPIVVTPEGNSVLIASPSDGAVVYYMEGMGVPMGSFKTYGRLPRAVNVINRQLRQNVPGVFSSRVKIPLAGTYDVAVLLDSPRIVQCFEFSADANPALQRLKTERPVMVEFVGSALRVEAGRESVVRFRVTDPVTHEPVADLRDLIVVTSLVPTGAWRQQLVSRPVGNGIYEVTFTARKVGIYSFNFAIPSLKVKLYQLAGMMIHAVETPAEAGSDVPAGQKKD", "values": [{"measurement": "protein production", "result": "failed"}]}
